T1: NHERF3_1, Q5T2W1
T1 sequence (Q5T2W1 4-100, limits assumed, looked up): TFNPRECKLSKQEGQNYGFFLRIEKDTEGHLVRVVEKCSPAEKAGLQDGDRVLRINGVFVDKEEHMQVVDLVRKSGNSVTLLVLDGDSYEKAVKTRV

T2: DFNB31_3, Q9P202
T2 sequence (Q9P202 811-907, limits assumed, looked up): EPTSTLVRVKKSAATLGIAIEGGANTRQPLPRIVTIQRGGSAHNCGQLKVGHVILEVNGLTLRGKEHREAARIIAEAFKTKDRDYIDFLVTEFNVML

T3: TX1BP3, O14907
T3 sequence (O14907 10-122, limits assumed, looked up): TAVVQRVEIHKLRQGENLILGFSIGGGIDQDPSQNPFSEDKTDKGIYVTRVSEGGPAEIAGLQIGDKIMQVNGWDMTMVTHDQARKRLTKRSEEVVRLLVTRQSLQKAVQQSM

T4: LIN7A, O14910
T4 sequence (O14910 103-200, limits assumed, looked up): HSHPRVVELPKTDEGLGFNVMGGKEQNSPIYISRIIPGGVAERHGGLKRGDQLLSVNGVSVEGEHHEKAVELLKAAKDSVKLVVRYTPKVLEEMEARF

T5: APBA3_1, O96018
T5 sequence (O96018 389-490, limits assumed, looked up): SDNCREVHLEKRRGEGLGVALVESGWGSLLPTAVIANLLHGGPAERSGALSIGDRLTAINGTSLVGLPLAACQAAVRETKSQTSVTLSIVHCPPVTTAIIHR

T6: TJP3_3, O95049
T6 sequence (O95049 375-456, limits assumed, looked up): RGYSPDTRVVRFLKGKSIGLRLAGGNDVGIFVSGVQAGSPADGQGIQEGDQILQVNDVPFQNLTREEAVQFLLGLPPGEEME

T7: SYNJ2BP, P57105
T7 sequence (P57105 8-110, limits assumed, looked up): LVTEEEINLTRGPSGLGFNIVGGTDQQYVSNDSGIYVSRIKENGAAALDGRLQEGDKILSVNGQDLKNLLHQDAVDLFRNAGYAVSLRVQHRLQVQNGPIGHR

T8: RADIL, Q96JH8
T8 sequence (Q96JH8 971-1071, limits assumed, looked up): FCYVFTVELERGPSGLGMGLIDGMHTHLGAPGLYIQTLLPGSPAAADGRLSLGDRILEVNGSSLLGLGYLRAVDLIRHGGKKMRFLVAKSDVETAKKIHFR

T9: DLG3_2, Q92796
T9 sequence (Q92796 221-321, limits assumed, looked up): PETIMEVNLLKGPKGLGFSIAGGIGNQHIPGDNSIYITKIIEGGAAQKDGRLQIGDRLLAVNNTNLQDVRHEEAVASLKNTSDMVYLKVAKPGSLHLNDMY

T10: SNTG1, Q9NSN8
T10 sequence (Q9NSN8 52-150, limits assumed, looked up): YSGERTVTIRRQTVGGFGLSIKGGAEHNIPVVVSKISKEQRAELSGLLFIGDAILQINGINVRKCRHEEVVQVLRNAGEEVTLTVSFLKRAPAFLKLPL

T11: PARD3B_1, Q8TEW8
T11 sequence (Q8TEW8 196-299, limits assumed, looked up): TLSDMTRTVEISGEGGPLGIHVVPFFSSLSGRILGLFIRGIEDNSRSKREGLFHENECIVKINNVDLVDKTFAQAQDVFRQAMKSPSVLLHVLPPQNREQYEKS


Experiments:
Experiment in all cases: holdup assay
Design in all cases: key: below the threshold = too weak to quantify, mostly under pKd 3.1 to 4
Settings in all cases: plain residues with an end cap or a label only (N-terminal biotin on a linker: ado-ado)
NHERF3_1, Q5T2W1 = molecular target: T1, NHERF3_1, Q5T2W1
MAGI1_1, Q96QZ7 = molecular target: MAGI1_1, Q96QZ7
MAGI2_6, Q86UL8 = molecular target: MAGI2_6, Q86UL8
DFNB31_3, Q9P202 = molecular target: T2, DFNB31_3, Q9P202
IL16_3, Q14005 = molecular target: IL16_3, Q14005
TX1BP3, O14907 = molecular target: T3, TX1BP3, O14907
Inadl_9, Q8NI35 = molecular target: Inadl_9, Q8NI35
MAGI2_3, Q86UL8 = molecular target: MAGI2_3, Q86UL8
FRMPD4, Q14CM0 = molecular target: FRMPD4, Q14CM0
DLG2_2, Q15700 = molecular target: DLG2_2, Q15700
GORASP2, Q9H8Y8 = molecular target: GORASP2, Q9H8Y8
LIN7A, O14910 = molecular target: T4, LIN7A, O14910
FRMPD2_1, Q68DX3 = molecular target: FRMPD2_1, Q68DX3
IL16_4, Q14005 = molecular target: IL16_4, Q14005
CASK, O14936 = molecular target: CASK, O14936
DLG5_1, Q8TDM6 = molecular target: DLG5_1, Q8TDM6
APBA3_1, O96018 = molecular target: T5, APBA3_1, O96018
TJP3_3, O95049 = molecular target: T6, TJP3_3, O95049
SYNJ2BP, P57105 = molecular target: T7, SYNJ2BP, P57105
RADIL, Q96JH8 = molecular target: T8, RADIL, Q96JH8
DLG3_2, Q92796 = molecular target: T9, DLG3_2, Q92796
DLG2_3, Q15700 = molecular target: DLG2_3, Q15700
SNTG1, Q9NSN8 = molecular target: T10, SNTG1, Q9NSN8
NOS1, P29475 = molecular target: NOS1, P29475
GRIP2_5, Q9C0E4 = molecular target: GRIP2_5, Q9C0E4
FRMPD3, Q5JV73 = molecular target: FRMPD3, Q5JV73
PARD3B_1, Q8TEW8 = molecular target: T11, PARD3B_1, Q8TEW8

Chain of IL16_4, Q14005 (Q14005 1229-1329): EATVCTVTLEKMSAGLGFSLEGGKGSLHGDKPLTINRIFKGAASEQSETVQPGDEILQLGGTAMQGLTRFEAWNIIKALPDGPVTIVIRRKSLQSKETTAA
Chain of GRIP2_5, Q9C0E4 (Q9C0E4 544-642): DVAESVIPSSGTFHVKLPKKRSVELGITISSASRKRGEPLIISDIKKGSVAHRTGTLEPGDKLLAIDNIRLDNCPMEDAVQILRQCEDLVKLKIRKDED
Chain of NOS1, P29475 (P29475 9-101): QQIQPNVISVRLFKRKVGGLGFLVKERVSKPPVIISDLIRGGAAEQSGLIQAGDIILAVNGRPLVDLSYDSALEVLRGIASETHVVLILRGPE
Chain of MAGI2_6, Q86UL8 (Q86UL8 1141-1229): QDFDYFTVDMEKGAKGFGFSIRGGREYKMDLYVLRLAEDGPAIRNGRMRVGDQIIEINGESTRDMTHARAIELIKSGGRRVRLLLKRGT
Chain of IL16_3, Q14005 (Q14005 1107-1207): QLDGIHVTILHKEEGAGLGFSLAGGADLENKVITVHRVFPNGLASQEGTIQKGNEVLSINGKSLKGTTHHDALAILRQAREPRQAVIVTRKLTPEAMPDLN
Chain of FRMPD2_1, Q68DX3 (Q68DX3 770-861): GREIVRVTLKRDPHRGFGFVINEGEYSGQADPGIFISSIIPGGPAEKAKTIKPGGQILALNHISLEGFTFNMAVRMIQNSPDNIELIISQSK
Chain of MAGI1_1, Q96QZ7 (Q96QZ7 1-106): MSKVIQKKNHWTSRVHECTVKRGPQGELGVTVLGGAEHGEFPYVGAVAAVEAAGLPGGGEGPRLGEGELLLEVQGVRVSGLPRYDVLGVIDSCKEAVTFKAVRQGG
Chain of Inadl_9, Q8NI35 (Q8NI35 1530-1615): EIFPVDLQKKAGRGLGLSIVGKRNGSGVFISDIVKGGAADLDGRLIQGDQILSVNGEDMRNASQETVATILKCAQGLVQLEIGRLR
Chain of MAGI2_3, Q86UL8 (Q86UL8 600-682): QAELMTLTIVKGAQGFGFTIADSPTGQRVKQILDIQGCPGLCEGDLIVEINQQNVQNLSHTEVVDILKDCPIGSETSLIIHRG
Chain of DLG5_1, Q8TDM6 (Q8TDM6 617-713): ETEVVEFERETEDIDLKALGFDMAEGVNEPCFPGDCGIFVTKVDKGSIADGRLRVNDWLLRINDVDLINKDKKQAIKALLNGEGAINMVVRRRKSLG
Chain of CASK, O14936 (O14936 487-570): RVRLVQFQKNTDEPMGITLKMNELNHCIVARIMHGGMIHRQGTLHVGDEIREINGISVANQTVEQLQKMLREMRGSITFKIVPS
Chain of FRMPD3, Q5JV73 (Q5JV73 12-100): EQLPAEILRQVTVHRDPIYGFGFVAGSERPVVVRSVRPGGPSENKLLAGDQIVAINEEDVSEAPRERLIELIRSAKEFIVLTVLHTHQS
Chain of FRMPD4, Q14CM0 (Q14CM0 67-160): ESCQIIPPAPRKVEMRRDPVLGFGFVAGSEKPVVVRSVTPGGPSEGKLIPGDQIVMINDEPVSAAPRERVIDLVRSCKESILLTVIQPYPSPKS

Row | Binder | pKd (NHERF3_1, Q5T2W1) | pKd (MAGI1_1, Q96QZ7) | pKd (MAGI2_6, Q86UL8) | pKd (DFNB31_3, Q9P202) | pKd (IL16_3, Q14005) | pKd (TX1BP3, O14907) | pKd (Inadl_9, Q8NI35) | pKd (MAGI2_3, Q86UL8) | pKd (FRMPD4, Q14CM0) | pKd (DLG2_2, Q15700) | pKd (GORASP2, Q9H8Y8) | pKd (LIN7A, O14910) | pKd (FRMPD2_1, Q68DX3) | pKd (IL16_4, Q14005) | pKd (CASK, O14936) | pKd (DLG5_1, Q8TDM6) | pKd (APBA3_1, O96018) | pKd (TJP3_3, O95049) | pKd (SYNJ2BP, P57105) | pKd (RADIL, Q96JH8) | further results
1 | GSSSKEGTSV [RRBP1, Q9P2E9] | below the threshold | below the threshold | 4.02 | 3.96 | below the threshold | below the threshold | 3.57 | 3.54 | 3.71 | 3.9 | below the threshold | below the threshold | below the threshold | 3.7 | below the threshold | below the threshold | below the threshold | below the threshold | 5.41 | below the threshold | pKd (DLG3_2, Q92796): 3.78; pKd (DLG2_3, Q15700): 3.9; pKd (SNTG1, Q9NSN8): 3.63; pKd (NOS1, P29475): 3.72; pKd (GRIP2_5, Q9C0E4): below the threshold; pKd (FRMPD3, Q5JV73): below the threshold; pKd (PARD3B_1, Q8TEW8): below the threshold
2 | QLAEIAESGL [ITK, Q08881] | 4.76 | 3.62 | 3.68 | below the threshold | 3.74 | below the threshold | below the threshold | 3.58 | 3.71 | 3.57 | below the threshold | 3.65 | below the threshold | 3.8 | below the threshold | 3.78 | below the threshold | below the threshold | 3.84 | below the threshold | pKd (DLG3_2, Q92796): below the threshold; pKd (DLG2_3, Q15700): below the threshold; pKd (SNTG1, Q9NSN8): 3.72; pKd (NOS1, P29475): below the threshold; pKd (GRIP2_5, Q9C0E4): 3.65; pKd (FRMPD3, Q5JV73): below the threshold; pKd (PARD3B_1, Q8TEW8): 3.63
3 | ADRDHASDQL [CTBP1, Q13363] | 4.5 | below the threshold | below the threshold | 3.97 | below the threshold | below the threshold | below the threshold | below the threshold | 3.93 | below the threshold | below the threshold | below the threshold | below the threshold | below the threshold | below the threshold | below the threshold | below the threshold | below the threshold | below the threshold | below the threshold | pKd (DLG3_2, Q92796): below the threshold; pKd (DLG2_3, Q15700): below the threshold; pKd (SNTG1, Q9NSN8): below the threshold; pKd (NOS1, P29475): below the threshold; pKd (GRIP2_5, Q9C0E4): below the threshold; pKd (FRMPD3, Q5JV73): below the threshold; pKd (PARD3B_1, Q8TEW8): below the threshold

The next lines start with results.

Row | pKd (NHERF3_1, Q5T2W1) | pKd (MAGI1_1, Q96QZ7) | pKd (MAGI2_6, Q86UL8) | pKd (DFNB31_3, Q9P202) | pKd (IL16_3, Q14005) | pKd (TX1BP3, O14907) | pKd (Inadl_9, Q8NI35) | pKd (MAGI2_3, Q86UL8) | pKd (FRMPD4, Q14CM0) | pKd (DLG2_2, Q15700) | pKd (GORASP2, Q9H8Y8) | pKd (LIN7A, O14910) | pKd (FRMPD2_1, Q68DX3) | pKd (IL16_4, Q14005) | pKd (CASK, O14936) | pKd (DLG5_1, Q8TDM6) | pKd (APBA3_1, O96018) | pKd (TJP3_3, O95049) | pKd (SYNJ2BP, P57105) | pKd (RADIL, Q96JH8) | Binder | further results
4 | below the threshold | below the threshold | below the threshold | below the threshold | below the threshold | below the threshold | below the threshold | below the threshold | below the threshold | below the threshold | below the threshold | below the threshold | below the threshold | below the threshold | below the threshold | below the threshold | below the threshold | below the threshold | below the threshold | below the threshold | EGGKKRESEA [APPL1, Q9UKG1] | pKd (DLG3_2, Q92796): 4.22; pKd (DLG2_3, Q15700): 3.73; pKd (SNTG1, Q9NSN8): below the threshold; pKd (NOS1, P29475): below the threshold; pKd (GRIP2_5, Q9C0E4): below the threshold; pKd (FRMPD3, Q5JV73): below the threshold; pKd (PARD3B_1, Q8TEW8): below the threshold
5 | below the threshold | 3.52 | 3.99 | below the threshold | below the threshold | 4.15 | 3.55 | 4.17 | below the threshold | 5.36 | 5.03 | 3.58 | below the threshold | below the threshold | below the threshold | below the threshold | below the threshold | below the threshold | 4.69 | 4.5 | PKLMGVETVV [DUSP10, Q9Y6W6] | pKd (DLG3_2, Q92796): 5.2; pKd (DLG2_3, Q15700): 4.21; pKd (SNTG1, Q9NSN8): 4.47; pKd (NOS1, P29475): 4.08; pKd (GRIP2_5, Q9C0E4): below the threshold; pKd (FRMPD3, Q5JV73): below the threshold; pKd (PARD3B_1, Q8TEW8): below the threshold
